Values quoted from earlier work in paper PMC2225448.

Columns and labels:
ErbB2 (Homo sapiens) = ErbB2 (Homo sapiens) (UniProt P04626)
[1] = target: EGFR pY1069 pY1069 (Homo sapiens) (UniProt P00533)
[2] = target: EGFR pY1069 (Homo sapiens) (UniProt P00533)

Sequence of Grb7 (Q14451 whole entry): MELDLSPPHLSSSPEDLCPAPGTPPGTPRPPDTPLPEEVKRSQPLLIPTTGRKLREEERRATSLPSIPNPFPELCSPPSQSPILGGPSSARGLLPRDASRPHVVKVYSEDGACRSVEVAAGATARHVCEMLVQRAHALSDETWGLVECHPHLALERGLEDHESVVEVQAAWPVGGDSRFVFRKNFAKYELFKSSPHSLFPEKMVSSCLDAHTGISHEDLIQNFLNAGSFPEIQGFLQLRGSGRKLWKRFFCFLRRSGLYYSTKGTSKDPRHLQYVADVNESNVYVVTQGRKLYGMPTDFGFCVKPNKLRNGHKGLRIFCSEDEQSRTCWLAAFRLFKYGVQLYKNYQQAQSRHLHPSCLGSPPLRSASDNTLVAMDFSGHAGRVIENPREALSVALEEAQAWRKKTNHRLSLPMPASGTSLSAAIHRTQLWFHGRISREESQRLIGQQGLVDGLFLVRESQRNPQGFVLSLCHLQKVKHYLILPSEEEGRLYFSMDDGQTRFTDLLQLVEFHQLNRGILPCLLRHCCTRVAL

Kd (ErbB2 (Homo sapiens)) [nM]	Kd [1] [nM]	Kd [2] [nM]	Substance
2300	–	–	Grb7 (from UniProt Q14451)
–	400	400	Cbl (from UniProt P22681)
